From patent EP1730287B1 (Syngenta Participations AG, dated 2011) come the findings set out here.

The test has as its target T1, NIM450 bait (first 450 amino acids of the NIM1 protein fused to the LexA DNA binding domain) (Arabidopsis, UniProt P0A7C2 1-202; P93002 1-450).
T1 construct: Truncated bait of the yeast two-hybrid screen
T1 sequence (looked up): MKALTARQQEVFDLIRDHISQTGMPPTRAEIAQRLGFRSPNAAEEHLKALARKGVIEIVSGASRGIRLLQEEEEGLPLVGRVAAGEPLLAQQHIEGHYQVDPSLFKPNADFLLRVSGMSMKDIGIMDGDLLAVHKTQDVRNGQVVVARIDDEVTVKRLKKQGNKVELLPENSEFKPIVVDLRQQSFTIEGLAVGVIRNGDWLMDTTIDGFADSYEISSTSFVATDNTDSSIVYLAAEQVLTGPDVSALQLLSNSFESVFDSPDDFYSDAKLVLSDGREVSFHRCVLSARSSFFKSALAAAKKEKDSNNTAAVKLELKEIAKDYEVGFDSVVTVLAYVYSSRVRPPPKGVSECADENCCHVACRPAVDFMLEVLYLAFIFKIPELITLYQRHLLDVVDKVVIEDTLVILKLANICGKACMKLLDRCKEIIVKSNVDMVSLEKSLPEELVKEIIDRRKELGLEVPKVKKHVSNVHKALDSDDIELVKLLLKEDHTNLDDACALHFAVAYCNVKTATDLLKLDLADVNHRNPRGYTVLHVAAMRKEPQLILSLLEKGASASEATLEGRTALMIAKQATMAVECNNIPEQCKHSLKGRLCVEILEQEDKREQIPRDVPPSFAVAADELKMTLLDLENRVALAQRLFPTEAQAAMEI
Kind of test: yeast two-hybrid (LexA bait, B42 prey; Leu2 and LacZ reporters).

B1: NI16 clone (Arabidopsis NI16 cDNA clone from the pJG4-5 library, fused to the B42 transcriptional activation domain) (other, not shown: large carriers)
chain: MNNSLKKEERVEEDNGKSDGNRGKPSTEVVRTVTEEEVDEFFKILRRVHVATRTVAKVNGGVAEGELPSKKRKRSQNLGLRNSLDCNGVRDGEFDEINRVGLQGLGLDLNCKPEPDSVSLSL
notes: Prey of the yeast two-hybrid screen; also called NI16 protein
For B1, the binding result was “no binding”.
